Changes are numbered by the printed parent chain. Names may count otherwise.

To fix the notation:
B1: H1032/L0442 (antibody, human IgG1, kappa, name in Kabat numbering, V domains shown)
VH: QVQLVESGGGLVQPGGSLRLSCAASGFTFDKYYLSWVRQAPGKGLEWVGLIRNKDNGYHPEYSASVKGRFTISRDDSKNSLYLTMSDLKTEDTAVYYCARENHRYDVELAYWGQGTLVTVSS
VL: DIQMTQSPSSLSASVGDRVTITCRASEIIYEYLAWYQQKPGKAPKLLIYKAKTHADGVPSRFSGSGSGTDFTFTISSLQPEDIATYYCKHHFGFPRTFGQGTKVEIKR
notes: L442 = L395 + S31E
B2: H1041/L0395 (antibody, human IgG1, kappa, name in Kabat numbering, V domains shown)
VH: B1 VH with D30S, K31E
VL: B1 VL with E31S
B3: H1041/L0442 (antibody, human IgG1, kappa, name in Kabat numbering, V domains shown)
VH: B1 VH with D30S, K31E
VL: B1 VL
notes: L442 = L395 + S31E
B4: H1040/L0395 (antibody, human IgG1, kappa, name in Kabat numbering, V domains shown)
VH: B1 VH with D30S, K31E, G57H, Y58H
VL: B1 VL with E31S
B5: H1049/L0395 (antibody, human IgG1, kappa, name in Kabat numbering, V domains shown)
VH: B1 VH with G57Y, Y58H, H59T
VL: B1 VL with E31S
B6: H1050/L0395 (antibody, human IgG1, kappa, name in Kabat numbering, V domains shown)
VH: B1 VH with D30S, K31E, G57Y, Y58H, H59T
VL: B1 VL with E31S
B7: H1037/L0395 (antibody, human IgG1, kappa, name in Kabat numbering, V domains shown)
VH: B1 VH with G57Y, Y58H
VL: B1 VL with E31S
B8: H1047/L0395 (antibody, human IgG1, kappa, name in Kabat numbering, V domains shown)
VH: B1 VH with H59T
VL: B1 VL with E31S
B9: H1049/L0442 (antibody, human IgG1, kappa, name in Kabat numbering, V domains shown)
VH: B1 VH with G57Y, Y58H, H59T
VL: B1 VL
notes: L442 = L395 + S31E
B10: H1050/L0442 (antibody, human IgG1, kappa, name in Kabat numbering, V domains shown)
VH: B1 VH with D30S, K31E, G57Y, Y58H, H59T
VL: B1 VL
notes: L442 = L395 + S31E
B11: H1046/L0395 (antibody, human IgG1, kappa, name in Kabat numbering, V domains shown)
VH: B1 VH with D30S, K31E, G57Y, Y58H
VL: B1 VL with E31S
B12: H1037/L0442 (antibody, human IgG1, kappa, name in Kabat numbering, V domains shown)
VH: B1 VH with G57Y, Y58H
VL: B1 VL
notes: L442 = L395 + S31E
B13: Hr9/L16 (antibody, human IgG1, kappa, name in Kabat numbering, V domains shown)
VH: B1 VH with D30S, K31D, D55A, H59T, P60R, T84Q, D87S, H103Y
VL: B1 VL with E31S, K50N, K89Q
notes: WS4L-k0MT with L54H
B14: VH3-F1168m / L(WT) (antibody)
heavy: QVQLQESGPGLVKPSETLSLTCAVSGHSISHDHAWSWVRQPPGEGLEWIGFISYSGITNYNPSLQGRVTISRDNSKNTLYLQMNSLRAEDTAVYYCARSLARTTAMDYWGEGTLVTVSSASTKGPSVFPLAPSSKSTSGGTAALGCLVKDYFPEPVTVSWNSGALTSGVHTFPAVLQSSGLYSLSSVVTVPSSSLGTQTYICNVNHKPSNTKVDKKVEPKSCDKTHTCPPCPAPELLGGPSVFLFPPKPKDTLMISRTPEVTCVVVDVSHEDPEVKFNWYVDGVEVHNAKTKPREEQYNSTYRVVSVLTVLHQDWLNGKEYKCKVSNKALPAPIEKTISKAKGQPREPQVYTLPPSREEMTKNQVSLTCLVKGFYPSDIAVEWESNGQPENNYKTTPPVLDSDGSFFLYSKLTVDKSRWQQGNVFSCSVMHEALHAHYTRKELSLSP
light: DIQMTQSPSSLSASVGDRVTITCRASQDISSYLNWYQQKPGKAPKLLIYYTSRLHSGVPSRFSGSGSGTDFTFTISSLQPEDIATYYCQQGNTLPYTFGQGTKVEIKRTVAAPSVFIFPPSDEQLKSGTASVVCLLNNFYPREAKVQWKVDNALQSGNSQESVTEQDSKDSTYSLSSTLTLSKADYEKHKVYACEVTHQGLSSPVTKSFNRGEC
notes: Fc: N434A/Q438R/S440E
B15: VH3-F1847m / L(WT) (antibody)
heavy: B14 heavy with Y438T
light: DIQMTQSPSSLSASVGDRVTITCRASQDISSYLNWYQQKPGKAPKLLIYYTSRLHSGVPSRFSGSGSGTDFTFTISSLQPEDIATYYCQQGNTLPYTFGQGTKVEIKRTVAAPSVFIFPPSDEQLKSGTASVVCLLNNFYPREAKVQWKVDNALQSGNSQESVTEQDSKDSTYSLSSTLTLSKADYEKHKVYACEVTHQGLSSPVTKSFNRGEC
notes: Fc: N434A/Y436T/Q438R/S440E
B16: VH3-F1927m / L(WT) (antibody)
heavy: B14 heavy with M430L
light: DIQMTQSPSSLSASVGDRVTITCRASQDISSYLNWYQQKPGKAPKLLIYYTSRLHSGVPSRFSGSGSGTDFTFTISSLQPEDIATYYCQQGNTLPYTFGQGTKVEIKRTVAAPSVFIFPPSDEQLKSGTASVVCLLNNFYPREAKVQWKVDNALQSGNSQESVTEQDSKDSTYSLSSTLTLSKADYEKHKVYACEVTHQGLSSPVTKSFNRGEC
notes: Fc: M428L/N434A/Q438R/S440E
B17: VH3-F1848m / L(WT) (antibody)
heavy: B14 heavy with Y438V
light: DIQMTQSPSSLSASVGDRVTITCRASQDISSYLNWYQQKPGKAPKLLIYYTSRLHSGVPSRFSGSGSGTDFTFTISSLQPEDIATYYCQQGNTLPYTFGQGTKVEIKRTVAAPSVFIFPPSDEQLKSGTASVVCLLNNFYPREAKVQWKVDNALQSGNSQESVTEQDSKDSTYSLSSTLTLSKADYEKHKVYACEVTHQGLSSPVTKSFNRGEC
notes: Fc: N434A/Y436V/Q438R/S440E
B18: VH3-F1886m / L(WT) (antibody)
heavy: B14 heavy with M430L, Y438T
light: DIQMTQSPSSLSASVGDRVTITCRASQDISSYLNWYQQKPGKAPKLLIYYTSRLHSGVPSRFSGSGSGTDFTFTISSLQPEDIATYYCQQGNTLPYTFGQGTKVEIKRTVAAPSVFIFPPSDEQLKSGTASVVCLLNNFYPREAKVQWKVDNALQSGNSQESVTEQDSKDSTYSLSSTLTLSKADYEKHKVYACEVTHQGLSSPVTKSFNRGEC
notes: Fc: M428L/N434A/Y436T/Q438R/S440E
B19: VH3-YTE / L(WT) (antibody, human IgG1, kappa)
heavy: B14 heavy with M254Y, S256T, T258E, A436N, R440Q, E442S
light: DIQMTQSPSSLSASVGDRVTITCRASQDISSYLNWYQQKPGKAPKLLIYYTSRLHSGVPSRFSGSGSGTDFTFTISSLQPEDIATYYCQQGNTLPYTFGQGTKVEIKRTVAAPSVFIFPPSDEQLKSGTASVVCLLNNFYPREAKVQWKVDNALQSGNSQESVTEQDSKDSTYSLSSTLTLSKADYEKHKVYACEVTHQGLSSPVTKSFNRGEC
notes: Fc: M252Y/S254T/T256E
B20: VH3-F1889m / L(WT) (antibody)
heavy: B14 heavy with M430L, Y438V
light: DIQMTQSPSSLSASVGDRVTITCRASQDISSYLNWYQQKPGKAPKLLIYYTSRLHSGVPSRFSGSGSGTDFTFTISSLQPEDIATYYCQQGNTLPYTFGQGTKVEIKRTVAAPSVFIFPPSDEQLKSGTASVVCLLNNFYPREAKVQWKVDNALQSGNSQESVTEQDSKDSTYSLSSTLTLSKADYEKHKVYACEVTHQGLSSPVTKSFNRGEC
notes: Fc: M428L/N434A/Y436V/Q438R/S440E
B21: H1009/L395-F1886m (antibody)
heavy: QVQLVESGGGLVQPGGSLRLSCAASGFTFSDYYLSWVRQAPGKGLEWVGLIRNKDNYHTPEYSASVKGRFTISRDDSKNSLYLTMSDLKTEDTAVYYCARENHRYDVELAYWGQGTLVTVSSASTKGPSVFPLAPSSKSTSGGTAALGCLVKDYFPEPVTVSWNSGALTSGVHTFPAVLQSSGLYSLSSVVTVPSSSLGTQTYICNVNHKPSNTKVDKKVEPKSCDKTHTCPPCPAPELLGGPSVFLFPPKPKDTLMISRTPEVTCVVVDVSHEDPEVKFNWYVDGVEVHNAKTKPREEQYNSTYRVVSVLTVLHQDWLNGKEYKCKVSNKALPAPIEKTISKAKGQPREPQVYTLPPSREEMTKNQVSLTCLVKGFYPSDIAVEWESNGQPENNYKTTPPVLDSDGSFFLYSKLTVDKSRWQQGNVFSCSVLHEALHAHTTRKELSLSP
light: DIQMTQSPSSLSASVGDRVTITCRASEIIYSYLAWYQQKPGKAPKLLIYKAKTHADGVPSRFSGSGSGTDFTFTISSLQPEDIATYYCKHHFGFPRTFGQGTKVEIKRTVAAPSVFIFPPSDEQLKSGTASVVCLLNNFYPREAKVQWKVDNALQSGNSQESVTEQDSKDSTYSLSSTLTLSKADYEKHKVYACEVTHQGLSSPVTKSFNRGEC

T1 sequence (P10145 23-99 limits assumed): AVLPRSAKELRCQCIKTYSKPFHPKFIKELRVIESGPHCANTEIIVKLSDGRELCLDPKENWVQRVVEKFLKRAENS
T4 sequence (Q8SPW2 17-208 limits assumed): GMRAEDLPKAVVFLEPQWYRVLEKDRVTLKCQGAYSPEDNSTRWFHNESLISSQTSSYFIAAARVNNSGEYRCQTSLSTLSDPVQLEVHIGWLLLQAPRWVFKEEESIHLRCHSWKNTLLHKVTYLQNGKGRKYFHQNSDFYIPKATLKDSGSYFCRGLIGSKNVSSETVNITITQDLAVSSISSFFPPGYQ

The first assay concerns the target T1, human IL-8 (human, UniProt P10145 23-99, limits assumed).
T1 construct: also called hIL-8; hIL8
The assay is described as follows: SPR Biacore T200, Protein A/G capture, pH 5.8, 37C.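 Further: antibodies captured by Protein A/G amine-coupled onto a CM4 sensor chip, with kinetic parameters derived using Biacore T200 Evaluation Software.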 Background: Surface plasmon resonance follows binding to a sensor surface in real time, without labels.
Protocol: (§2) An appropriate amount of Protein A/G (PIERCE) was immobilized onto the Sensor chip CM4 (GE Healthcare) by the amine coupling method and the antibodies of interest were captured. […] To regenerate the sensor chip, 25 mM NaOH and 10 mM glycine-HCl (pH 1.5) were used. […] The BIACORE T200 Evaluation Software (GE Healthcare) was used to calculate each parameter.
With B1, the Kd (usually the free concentration of one partner at which half of the binding sites on the other are occupied at equilibrium, for simple one-to-one binding) was 43 nM and the koff (as a rule, the first-order rate constant of dissociation) was 0.0059 s⁻¹.
B2 showed a Kd of 71 nM and an off-rate constant (koff) of 0.013 s⁻¹.
The matching figures for B3: 61 nM and 0.015 s⁻¹.
The matching figures for B4: 240 nM and 0.046 s⁻¹.
Molecule B5 registered a dissociation constant (Kd) of 38 nM and a dissociation rate constant (koff) of 0.004 s⁻¹.
As for B6, the dissociation constant (Kd) was determined as 77 nM and the koff is 0.005 s⁻¹.
Taken in the same sequence, the figures for B7 were 70 nM and 0.015 s⁻¹.
Taken in the same sequence, the figures for B8 were 47 nM and 0.006 s⁻¹.
The matching figures for B9: 33 nM and 0.0045 s⁻¹.
For the molecule B10, the dissociation constant (Kd) stood at 54 nM and the off-rate constant (koff) is 0.0076 s⁻¹.
Taken in the same sequence, the figures for B11 were 160 nM and 0.012 s⁻¹.
As for B12, the Kd was determined as 61 nM and the off-rate constant (koff) was determined as 0.015 s⁻¹.

The next assay concerns the target T1, human IL-8. The assay is described as follows: SPR Biacore T200, Protein A/G capture, pH 7.4, 40C.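 Further: antibodies captured via Protein A/G, which was amine-coupled to a CM4 sensor chip.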
Protocol: as §2
B1: binding was characterised by a dissociation constant (Kd) of 0.078 nM.
Still for that read-out and setting: the figure for B2 is 0.08 nM.
B3 displayed a Kd of 0.12 nM.
Molecule B4 registered a Kd of 0.26 nM.
B5 came in with a Kd of 0.025 nM.
Same read-out and setting: the result for B6 reads 0.066 nM; that for B7, 0.094 nM; that for B8, 0.095 nM.
B9 displayed a dissociation constant (Kd) of 0.053 nM.
Same read-out and setting: the figure for B10 is 0.099 nM; for B11 it is 0.18 nM; for B12 it is 0.13 nM.

A further assay has as its target T1, human IL-8. Description: SPR Biacore T200, 37C; ratio between pH 7.4 and pH 5.8.
Protocol: (§3) An appropriate amount of Protein A/G (PIERCE) was immobilized onto Sensor chip CM4 (GE Healthcare) by the amine coupling method and the antibodies of interest was captured. […] To regenerate the sensor chip, 10 mM glycine-HCl at pH 1.5 was used. All measurements were carried out at 37° C. […] The BIACORE T200 Evaluation Software (GE Healthcare) was used to calculate each parameter.
On to B13, for which the “KD Ratio (pH 5.8/pH 7.4)” value worked out at 46.8, the “Koff Ratio (pH 5.8/pH 7.4)” value was found to be 2.1 and the “kon Ratio (pH 7.4/pH 5.8)” value is 22.8.

The next assay addresses T1, human IL-8. The assay is described as follows: SPR Biacore T200, Protein A/G capture, IL-8 analyte, pH 5.8, 37C.
Protocol: as §3
Turning to B13, the off-rate (koff) worked out at 0.000197 s⁻¹ and the kon (usually the rate constant with which the complex forms) was determined as 39100 M⁻¹ s⁻¹.

A further assay concerns the target T1, human IL-8. The assay is described as follows: SPR Biacore T200, Protein A/G capture, IL-8 analyte, pH 7.4, 37C.
Protocol: as §3
Consider B13, for which the koff is 9.57e-05 s⁻¹ and the kon is 890000 M⁻¹ s⁻¹.

The target of a further assay is T2, human FcRn (human, UniProt P55899 24-290; P61769 21-119, limits assumed).
T2 construct: also called hFcRn
T2 sequence (P55899 24-290 limits assumed, chain 1 of 2): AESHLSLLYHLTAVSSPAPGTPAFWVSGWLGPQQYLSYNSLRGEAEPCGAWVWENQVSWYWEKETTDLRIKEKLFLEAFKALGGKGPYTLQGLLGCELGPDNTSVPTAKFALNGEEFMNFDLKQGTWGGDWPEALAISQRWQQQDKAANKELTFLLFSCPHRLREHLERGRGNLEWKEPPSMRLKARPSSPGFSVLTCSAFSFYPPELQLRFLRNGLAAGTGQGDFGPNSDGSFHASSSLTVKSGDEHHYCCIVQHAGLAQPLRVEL
T2 sequence (P61769 21-119 limits assumed, chain 2 of 2): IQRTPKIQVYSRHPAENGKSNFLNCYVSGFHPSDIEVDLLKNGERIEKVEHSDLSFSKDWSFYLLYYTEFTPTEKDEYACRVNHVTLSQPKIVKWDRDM
The assay is described as follows: SPR Biacore T100, Ab captured on Protein L, FcRn analyte, pH 6.0, 25C. The method, then:
Antibodies containing VH3-IgG1m or an above-mentioned variant as the heavy chain and L(WT) (SEQ ID NO:1) as the light chain were produced by the method of Reference Example 2, and the binding activity toward human FcRn was evaluated as follows.
Kinetic analyses of human FcRn and each of the antibodies were carried out using BIACORE T100 (GE Healthcare). […] For the running buffer, 50 mM sodium phosphate, 150 mM NaCl, and 0.05% (w/v) Tween 20 at pH 6.0 was used, and the respective buffer was also used to dilute FcRn. […] All measurements were carried out at 25° C.
In turn, B14 returned an equilibrium dissociation constant (Kd) of 410 nM.
Still for that read-out and setting: the figure for B15 is 367 nM; for B16 it is 125 nM; for B17 it is 295 nM.
Still for that read-out and setting: the result for B18 reads 108 nM; that for B19, 148 nM; that for B20, 103 nM.

The target of a further assay is T3, soluble human FcγRIa (His-tagged) (human, UniProt P12314 16-292, limits assumed).
T3 construct: also called hFcγRIa; not shown: His tag
T3 sequence (P12314 16-292 limits assumed): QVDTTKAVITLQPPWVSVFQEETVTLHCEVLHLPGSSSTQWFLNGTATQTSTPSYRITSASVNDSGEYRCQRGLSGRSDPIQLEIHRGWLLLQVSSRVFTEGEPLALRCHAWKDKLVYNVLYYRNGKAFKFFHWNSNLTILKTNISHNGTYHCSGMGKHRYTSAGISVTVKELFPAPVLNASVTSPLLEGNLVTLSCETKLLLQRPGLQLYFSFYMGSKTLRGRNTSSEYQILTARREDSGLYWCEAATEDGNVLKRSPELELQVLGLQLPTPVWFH
The assay is described as follows: SPR (Biacore T200), antibody captured on rProtein L on a CM4 chip, soluble His-tagged FcγR injected, HBS-EP+, 20 °C. The procedure:
(§1) Soluble FcγRIa and FcγRIIIa in both human and cynomolgus monkey were produced in the form of His-tagged molecules by methods known to those of ordinary skill in the art. […] Next, soluble FcγRIa or FcγRIIIa was injected with a running buffer (used as a reference solution), and was made to interact with the antibodies captured onto the sensor chip. HBS-EP+(GE Healthcare) was used as the running buffer, and HBS-EP+ was also used to dilute the soluble FcγRIa or FcγRIIIa. […] All measurements were carried out at 20° C.
Take B21: the binding result is recorded as “binds”.

A further assay concerns the target T4, soluble cynomolgus monkey FcγRIIIa (His-tagged) (cynomolgus monkey, UniProt Q8SPW2 17-208).
T4 construct: also called cynoFcγRIIIa; not shown: His tag
The assay is described as above. The method, then:
as §1
For the molecule B21, the binding result was “binds”.

These data come from patent publication US20190169286A1 (Chugai, published 2019).
